Test results published in patent publication US11028167 (CENTIVAX, dated 2021).
Where a chain is given by its changes, count along the chain named.

B1: COVID19_P06_G10 (scFv, V domains shown)
VH: QVQLVQSGAEVKKPGASVKVSCKASGYDFINYYIHWVRQAPGQGLEWMGIIDPSGGSTSYAQKFQGRVTMTRDTSTSTVYMELSSLRSEDTAVYYCTREGIPQLLRTLDYWGQGTLVTVSS
VL: DIQMTQSPSSLSASVGDRVTITCRASQDISDSLAWYQQKPGKAPKLLIYAASSLQSGVPSRFSGSGSGTDFTLTISSLQPEDFATYYCQQSYSRLAWTFGGGTKVEIKR
B2: COVID19_R02_F04 (scFv, V domains shown)
VH: B1 VH with D28R, I30T, N31S, Y33E, I34V, H35N, D52N, R106W, T107A
VL: not shown
B3: COVID19_R02_D11 (scFv, V domains shown)
VH: B1 VH with D28T, I30T, N31E, Y32N, Y33E, I34M, D52N, G55A
VL: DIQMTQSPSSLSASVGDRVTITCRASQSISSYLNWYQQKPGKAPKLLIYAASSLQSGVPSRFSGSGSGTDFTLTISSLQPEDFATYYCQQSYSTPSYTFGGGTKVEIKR
B4: COVID19_R02_A12 (scFv, V domains shown)
VH: B1 VH with D28T, I30T, N31E, Y32N, Y33E, I34M, D52N, P53T, S57Y, S59N
VL: DIQMTQSPSSLSASVGDRVTITCRASQSISSWLAWYQQKPGKAPKLLIYAASSLQSGVPSRFSGSGSGTDFTLTISSLQPEDFATYYCQQSYSNPYTFGGGTKVEIKR
B5: COVID19_R02_C11 (scFv, V domains shown)
VH: B1 VH with D28T, I30S, N31D, I34M, T58A
VL: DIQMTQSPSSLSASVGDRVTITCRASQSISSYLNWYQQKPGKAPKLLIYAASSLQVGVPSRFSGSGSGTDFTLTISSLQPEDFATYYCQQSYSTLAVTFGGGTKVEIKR
B6: COVID19_P06_C02 (scFv, V domains shown)
VH: B1 VH with D28T, I30T, N31E, Y32N, Y33E, I34M, D52N, Q103W, L104W
VL: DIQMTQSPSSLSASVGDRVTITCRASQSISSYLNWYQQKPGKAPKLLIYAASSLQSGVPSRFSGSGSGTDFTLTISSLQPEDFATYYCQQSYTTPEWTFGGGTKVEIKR
notes: also called COVID19_P06_CO2
B7: COVID19_R02_A04 (scFv, V domains shown)
VH: B1 VH with D28T, I30T, N31E, Y32N, Y33E, I34M, D52N, S54D
VL: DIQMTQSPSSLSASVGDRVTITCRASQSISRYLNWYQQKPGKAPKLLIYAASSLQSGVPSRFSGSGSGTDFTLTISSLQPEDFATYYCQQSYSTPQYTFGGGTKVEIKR
B8: COVID19_R02_E11 (scFv, V domains shown)
VH: B1 VH with D28T, I30T, N31E, Y32N, Y33E, I34M, D52N
VL: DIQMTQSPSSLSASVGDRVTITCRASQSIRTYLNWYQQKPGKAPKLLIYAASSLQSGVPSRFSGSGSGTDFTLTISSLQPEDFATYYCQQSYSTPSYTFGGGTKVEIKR
notes: also called COVID19_C R02_E11
B9: COVID19_R02_D07 (scFv, V domains shown)
VH: B1 VH with D28T, I30T, N31E, Y32N, Y33E, I34M, D52N, I101P
VL: DIQMTQSPSSLSASVGDRVTITCRASQSISSYLNWYQQKPGKAPKLLIYHTSNLETGVPSRFSGSGSGTDFTLTISSLQPEDFATYYCQQSYSFPATTFGGGTKVEIKR
B10: COVID19_P06_F05 (scFv, V domains shown)
VH: QVQLVQSGAEVKKPGASVKVSCKASGYTFASYDVNWVRQAPGQGLEWMGIINPRSGDANYAQKFQGRVTMTRDTSTSTVYMELSSLRSEDTAVYYCTRERHPQLLMPLDYWGQGTLVTVSS
VL: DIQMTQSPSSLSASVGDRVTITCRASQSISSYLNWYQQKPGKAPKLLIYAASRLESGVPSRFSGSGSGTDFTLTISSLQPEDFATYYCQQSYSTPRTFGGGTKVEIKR
B11: COVID19_R02_F08 (scFv, V domains shown)
VH: QVQLVQSGAEVKKPGASVKVSCKASGYTFGNYAINWVRQAPGQGLEWMGAIYPGNSDTTYNQKFQGRVTMTRDTSTSTVYMELSSLRSEDTAVYYCARDTVMGGMDVWGQGTLVTVSS
VL: B4 VL with S28E, S31G, W32Y, A34S, S91Y, Y92V, N94Y, Y96W
B12: COVID19_P06_C09 (scFv, V domains shown)
VH: QVQLVQSGAEVKKPGASVKVSCKASGYTFTSYEINWVRQAPGQGLEWMGVINPSGGHTNYAQKFQGRVTMTRDTSTSTVYMELSSLRSEDTAVYYCTREGIPQLAGTLDYWGQGTLVTVSS
VL: B4 VL with S31G, W32Y, A34N, Q55E, S91G, S93T, N94T, Y96R
B13: COVID19_P06_G02 (scFv, V domains shown)
VH: B12 VH with Y32H, E33D, V50M, H57Y, N59S, K63N, Q103A, A105L, G106R
VL: B4 VL with S28G, S30R, S31N, W32D, A34G, S91T, S93T, N94T
B14: COVID19_P06_F03 (scFv, V domains shown)
VH: QVQLVQSGAEVKKPGASVKVSCKASGYTFTSYSMHWVRQAPGQGLEWMGAIYPGNSDTTYAQKFQGRVTMTRDTSTSTVYMELSSLRSEDTAVYYCTLDGIPQLLRTLDYWGQGTLVTVSS
VL: B4 VL with W32Y, A34N, A50G, A51V, Q55H, Q89L, S91Y, Y92V, N94Y, Y96W
B15: COVID19_P06_G11 (scFv, V domains shown)
VH: B14 VH with Y27N, S31G, S33Y, N55G, T59S, A61N, L98R, D99E, L105A, R106W
VL: DIQMTQSPSSLSASVGDRVTITCRASQSMSSYLNWYQQKPGKAPKLLIYAASSLQSGVPSRFSGSGSGTEFTLTISSLQPEDIATYYCQQFGSFGGGTKVEIKR
B16: COVID19_R02_C12 (scFv, V domains shown)
VH: B12 VH with E33D, V50M, I51V, N52D, S54N, G55S, H57N, N59Y, V68F, A105L
VL: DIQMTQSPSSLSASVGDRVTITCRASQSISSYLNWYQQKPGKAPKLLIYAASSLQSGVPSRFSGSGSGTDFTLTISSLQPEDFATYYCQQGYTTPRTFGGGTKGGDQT
B17: COVID19_R02_F06 (scFv, V domains shown)
VH: B1 VH with D28T, I30T, N31E, Y32N, Y33E, I34M, D52N, S54N, S57G, S59Y
VL: B4 VL with S28G, S30R, S31N, W32D, A34G, S91T, N94A
B18: COVID19_R02_F07 (scFv, V domains shown)
VH: B12 VH with S31E, Y32N, I34M, N35H, V50I, P53T, H57Y, A105L, G106R
VL: B4 VL with Y96L, T97H
B19: COVID19_R02_A05 (scFv, V domains shown)
VH: B12 VH with S31E, Y32N, I34M, N35H, V50M, H57Y, K63E, A105L, G106R
VL: B4 VL with S30Y, S31R, D70E, S93G
B20: COVID19_P06_G03 (scFv, V domains shown)
VH: QVQLVQSGAEVKKPGASVKVSCKASGYTFTENEMHWVRQAPGQGLEWMGVVNPSGGYTSYAQKFQGRVTMTRDTSTSTVYMELSSLRSEDTAVYYCTREGIPQLLRSQDYWGQGTLVTVSS
VL: not shown
B21: COVID19_R02_B06 (scFv, V domains shown)
VH: B20 VH with V51I, S107H, Q108L
VL: B4 VL with S31G, W32Y, A34S, G68W, N94T, Y96L
B22: COVID19_R02_D03 (scFv, V domains shown)
VH: B20 VH with N32Y, V50I, V51I, S59N, L104V, S107T, Q108L
VL: B4 VL
B23: COVID19_R02_B08 (scFv, V domains shown)
VH: B1 VH with D28T, I30T, N31S, D52N, S54R, G100A, I101K
VL: DIQMTQSPSSLSASVGDRVTITCRASQGIDTYLNWYQQKPGKAPKLLIYKASSLESGVPSRFSGSGSGTEFTLTINSLQPEDIATYYCQQYDNLPLTFGGGTKVEIKR

The binders below were run against T1, SARS-CoV-2 Receptor Binding Domain (RBD) protein (SARS-CoV-2, UniProt P0DTC2 319-541) (assay: SPR, scFv captured by anti-V5, RBD analyte).

Binder | Kd | koff | kon
B1 | 2.06 nM | 0.00068 s⁻¹ | 330000 M⁻¹ s⁻¹
B2 | 6.4 nM | 0.00036 s⁻¹ | 56000 M⁻¹ s⁻¹
B3 | 4.9 nM | 0.00069 s⁻¹ | 140000 M⁻¹ s⁻¹
B4 | 46.3 nM | 0.0102 s⁻¹ | 219000 M⁻¹ s⁻¹
B5 | 12.8 nM | 0.0011 s⁻¹ | 86000 M⁻¹ s⁻¹
B6 | 6.15 nM | 0.000438 s⁻¹ | 71200 M⁻¹ s⁻¹
B7 | 12.7 nM | 0.00069 s⁻¹ | 54400 M⁻¹ s⁻¹
B8 | 7.9 nM | 0.00079 s⁻¹ | 100000 M⁻¹ s⁻¹
B9 | 6.3 nM | 0.00043 s⁻¹ | 68000 M⁻¹ s⁻¹
B10 | 0.9 nM | 5.7e-05 s⁻¹ | 61900 M⁻¹ s⁻¹
B11 | 9.1 nM | 0.00071 s⁻¹ | 78000 M⁻¹ s⁻¹
B12 | 2.47 nM | 0.00074 s⁻¹ | 300000 M⁻¹ s⁻¹
B13 | 6.92 nM | 0.0009 s⁻¹ | 130000 M⁻¹ s⁻¹
B14 | 32.6 nM | 0.00532 s⁻¹ | 163000 M⁻¹ s⁻¹
B15 | 21.5 nM | 0.0014 s⁻¹ | 65000 M⁻¹ s⁻¹
B16 | 8.2 nM | 0.00059 s⁻¹ | 72000 M⁻¹ s⁻¹

Each binder was assayed against SARS-CoV-1 Receptor Binding Domain (RBD) protein (SARS-CoV-1, UniProt P59594 306-527) (assay: SPR, scFv captured by anti-V5, RBD analyte).

Binder | binding result
B1 | no binding (tested: 300 nM)
B3 | no binding (tested: 300 nM)
B4 | no binding (tested: 300 nM)
B17 | no binding (tested: 300 nM)
B18 | no binding (tested: 300 nM)
B19 | no binding (tested: 300 nM)
B5 | no binding (tested: 300 nM)
B6 | no binding (tested: 300 nM)
B7 | no binding (tested: 300 nM)
B8 | no binding (tested: 300 nM)
B9 | no binding (tested: 300 nM)
B20 | no binding (tested: 300 nM)
B21 | no binding (tested: 300 nM)
B22 | no binding (tested: 300 nM)
B10 | no binding (tested: 300 nM)
B11 | no binding (tested: 300 nM)
B12 | no binding (tested: 300 nM)
B13 | no binding (tested: 300 nM)
B14 | no binding (tested: 300 nM)
B15 | no binding (tested: 300 nM)
B16 | no binding (tested: 300 nM)

What follows are binders tested against MERS Receptor Binding Domain (RBD) protein (Middle East Respiratory Syndrome (MERS) …, UniProt K9N5Q8 367-606) (assay: SPR, scFv captured by anti-V5, RBD analyte).

Binder | binding result
B1 | no binding (tested: 300 nM)
B3 | no binding (tested: 300 nM)
B4 | no binding (tested: 300 nM)
B17 | no binding (tested: 300 nM)
B18 | no binding (tested: 300 nM)
B19 | no binding (tested: 300 nM)
B5 | no binding (tested: 300 nM)
B6 | no binding (tested: 300 nM)
B7 | no binding (tested: 300 nM)
B8 | no binding (tested: 300 nM)
B9 | no binding (tested: 300 nM)
B20 | no binding (tested: 300 nM)
B21 | no binding (tested: 300 nM)
B22 | no binding (tested: 300 nM)
B10 | no binding (tested: 300 nM)
B11 | no binding (tested: 300 nM)
B12 | no binding (tested: 300 nM)
B13 | no binding (tested: 300 nM)
B14 | no binding (tested: 300 nM)
B15 | no binding (tested: 300 nM)
B16 | no binding (tested: 300 nM)

Molecular target: T1, SARS-CoV-2 Receptor Binding Domain …
Assay: SPR, scFv captured by anti-V5, RBD analyte
Remark: another data set of the same source

Binder | Kd
B23 | 166 nM
